The values below come from patent US6900299 (UNIVERSITY OF SOUTH FLORIDA, dated 2005).

Experiment [1] deals with human ICAM-1 on cells (HEp-2, NHBE, A549, U937) (human) (UniProt P05362). The experiment can be described thus: cell-based or functional assay.
In experiment [2] the target is T1, human ICAM-1 fused to the VP16 activation domain (pVP16 vector) (herpes simplex virus; human, UniProt P05362 28-532).
T1 construct: Order of the parts follows the usual pVP16 layout; also called ICAM-1 (two-hybrid construct)
T1 sequence (P05362 28-532 limits assumed): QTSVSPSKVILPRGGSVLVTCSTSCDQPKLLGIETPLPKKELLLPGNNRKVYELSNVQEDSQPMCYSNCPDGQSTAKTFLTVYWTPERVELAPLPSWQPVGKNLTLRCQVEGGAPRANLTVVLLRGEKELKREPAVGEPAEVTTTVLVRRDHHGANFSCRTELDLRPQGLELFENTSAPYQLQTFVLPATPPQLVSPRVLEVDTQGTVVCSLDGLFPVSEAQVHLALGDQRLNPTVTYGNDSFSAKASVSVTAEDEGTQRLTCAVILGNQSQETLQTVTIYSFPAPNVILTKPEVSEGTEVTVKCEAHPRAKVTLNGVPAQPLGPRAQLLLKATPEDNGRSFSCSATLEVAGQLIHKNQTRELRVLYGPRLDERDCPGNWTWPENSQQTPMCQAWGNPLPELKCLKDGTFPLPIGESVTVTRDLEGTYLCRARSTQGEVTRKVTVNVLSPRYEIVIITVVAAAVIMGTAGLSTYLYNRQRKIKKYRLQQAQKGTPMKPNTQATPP
As to the kind of experiment: mammalian two-hybrid assay in NIH3T3 cells, CAT reporter (CAT activity similar to the basal level).

Sequence of human ICAM-1 on cells (HEp-2, NHBE, A549, U937) (human) (P05362 28-532): as the sequence (P05362 28-532 limits assumed) above

In experiment [1], “mouse anti-human ICAM-1 mAb (BBA 4) (R & D Systems) (antibody)” yielded an inhibition of RSV N gene mRNA in HEp-2 cells (RT-PCR) at 400 µg of mAb/ml of 70%; an inhibition of RSV infection of HEp-2 cells (immunofluorescence, percent infected cells) at 400 µg/ml of 96%; a reduction in RSV infection of A549 cells at 400 µg of mAb/ml of 67%; a reduction in RSV infection of NHBE cells at 400 µg of mAb/ml of 54%.

B1: RSV-G fused to the GAL4 DNA-binding domain (pM vector) (other)
chain: MKLLSSIEQACDICRLKKLKCSKEKPKCAKCLKNNWECRYSPKTKRSPLTRAHLTEVESRLERLEQLFLLIFPREDLDMILKMDSLQDIKALLTGLFVQDNVNKDAVTDRLASVETDMPLTLRQHRISATSSSEESSNKGQRQLTVSMSKNKDQRTAKTLERTWDTLNHLLFISSCLYKLNLKSVAQITLSILAMIISTSLIIAAIIFIASANHKVTPTTAIIQDATSQIKNTTPTYLTQNPQLGISPSNPSEITSQITTILASTTPGVKSTLQSTTVKTKNTTTTQTQPSKPTTKQRQNKPPSKPNNDFHFEVFNFVPCSICSNNPTCWAICKRIPNKKPGKKTTTKPTKKPTLKTTKKDPKPQTTKSKEVPTTKPTEEPTINTTKTNIITTLLTSNTTGNPELTSQMETFHSTSSEGNPSPSQVSTTSEYPSQPSSPPNTPRQ
notes: also called cDNA construct expressing G; RSV-G gene product
As for B1, the binding result in experiment [2] was “no binding”.
